Experimental data: patent US20200277373A1, “ANTI-TREM2 ANTIBODIES AND METHODS OF USE THEREOF” (Denali Therapeutics Inc., priority 2017, published 2020)

T1: hTREM2 (Homo sapiens, UniProt Q9NZC2)
T1 construct: The ecto domain (residues 19-172) of TREM2 (UniProtKB—Q9NZC2); secretion signal of mouse Ig kappa chain V-III (P01661 aa 1-20) (N); made in house; host or cells: Expi293F
T1 sequence (Q9NZC2 19-172): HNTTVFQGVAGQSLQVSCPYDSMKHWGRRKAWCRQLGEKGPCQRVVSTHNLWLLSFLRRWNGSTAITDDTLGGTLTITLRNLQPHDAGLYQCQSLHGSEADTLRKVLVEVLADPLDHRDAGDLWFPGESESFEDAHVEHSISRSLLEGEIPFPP

T2: TREM2 (Homo sapiens, UniProt Q9NZC2)
T2 construct: macrophage cells that endogenously express TREM2; endogenous in cells; host or cells: primary human monocyte-derived macrophages from donor blood
T2 sequence (Q9NZC2 19-230): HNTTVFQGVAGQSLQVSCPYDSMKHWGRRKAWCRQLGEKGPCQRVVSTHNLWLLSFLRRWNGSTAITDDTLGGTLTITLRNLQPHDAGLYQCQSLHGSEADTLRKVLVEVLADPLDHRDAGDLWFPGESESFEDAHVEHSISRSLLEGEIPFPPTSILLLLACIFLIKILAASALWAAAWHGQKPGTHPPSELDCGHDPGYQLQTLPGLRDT


How the values were obtained:
soluble TREM2 (sTREM2) = target: T3, soluble TREM2 (sTREM2) (Homo sapiens, UniProt Q9NZC2); test: Soluble TREM2 (TREM2 shedding) assay in HEK293 TREM2/DAP12 cells; assay type: cell-based; set-up: key to STREM2: NC = no change; −− = reduced sTREM2; ++ = increased sTREM2; details: for STREM2: change in sTREM2 levels
T3 construct: expressed in transfected cells
T3 sequence (O43914 22-113 partner, one chain of several): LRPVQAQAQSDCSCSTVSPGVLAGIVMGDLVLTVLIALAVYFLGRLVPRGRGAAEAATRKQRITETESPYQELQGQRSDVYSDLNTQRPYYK
Description: HEK293 cells stably expressing human TREM2 and DAP12 were plated onto 96-well plates pre-coated with poly-D-lysine 4-16 hours prior to antibody treatment. Antibody supernatants or control antibodies were diluted into fresh complete media and added onto cells in triplicate. Cells were incubated with antibody containing media for 18 hours prior to removal of the cell supernatant for assay by TREM2 ELISA. Samples and standards were diluted 1:10 into blocking buffer (3% BSA/TBST) in the assay plate. Briefly, MSD small spot streptavidin plates were coated with biotinylated anti-hTREM2 polyclonal antibody (R&D Systems) overnight at 4° C. or 1 hour at room temperature. Plates were then blocked overnight at 4° C., or 1 hour at room temperature, with blocking buffer, 3% BSA/TBST. Plates were washed three times with TBST in a Biotek plate washer (used for all washes) prior to addition of diluent (blocking buffer) and denatured supernatants from cell culture. A TREM2-His protein diluted in 3% BSA/TBST was used as a standard for absolute quantification. Following 1 hour incubation at room temperature, plates were washed with TBST. The primary detection antibody, sulfo-tagged goat anti-human TREM2 (R&D Systems), diluted in 3% BSA/TBST was added and incubated for 1 hour at room temperature. After washing with TBST, MSD plates were developed using 2×MSD read buffer T, followed by detection using an MSD Sector plate reader. MSD values were converted to absolute quantities of sTREM2 by fitting a standard curve using Prism 7.0 software (Graphpad). Modulation of TREM2 shedding was represented as a ratio to cells cultured with no specific TREM2 antibody in the media.

TREM2 [1] = target: T4, TREM2 (Homo sapiens, UniProt Q9NZC2); test: FACS binning on human TREM2-HEK cells (competition with R&D antibody); assay type: binding; details: epitope bin, 100 nM antibody
T4 construct: expressed in transfected cells
Description: HEK293 overexpressing human TREM2 (H6) were harvested by 0.05% trypsin and incubated at 37° C. incubator for 2 hours for surface TREM2 recovery. After incubation, cells were washed with 1×PBS and FACS buffer (PBS+0.5% BSA) with human Trustain FcX solution (Biolegend, Cat #422302) was added at a density of 10^6/mL. Cells were seeded at 100,000 cells per well in a 96-well round-bottom and incubated 20 minutes at room temperature. After incubation, anti-TREM2 antibodies (100 nM) were added to the cells and the cells were incubated for 45 minutes on ice. After incubation, rat anti-h/mTREM2-APC antibody (1:100, R&D, Cat # FAB17291A) was added to the cells, and the cells were incubated for 30 minutes on ice. After incubation, cells were washed with FACS buffer three times and resuspended in 10 μL FACS buffer, then analyzed by flow cytometry (BD FACSCanto II, San Jose, Calif.). 20,000 events were obtained for each sample. The ability to compete with R&D antibody was determined by MFI analysis compared to isotype or buffer control wells.
T4 sequence (O43914 22-113 partner, one chain of several): as above

hTREM2 = target: T1, hTREM2; test: Octet binning (competition with R&D antibody on biotinylated TREM2-His); assay type: binding; details: epitope bin, 100 nM
Description: Competition with R&D antibody was done by Octet Red using biotinylated human Trem2-His protein generated in house. Biotinylated human TREM2-His protein was captured on a streptavidin tip, and the tip was then incubated in either 100 nM of R&D Ab or buffer for 3 minutes, followed by incubation for 3 minutes in 100 nM of testing hybridoma. The difference of hybridoma binding curve with or without pre-binding to R&D antibody was analyzed to determine the epitope.

TREM2 [2] = target: T2, TREM2; test: TREM2 pSyk antagonist assay on human macrophages (antibody pre-incubation, then liposomes); assay type: cell-based; details: FIGS. 9C-9D, 30 nM antibody
Description: (§1) Human macrophages were differentiated from donor blood using a human monocyte enrichment cocktail (Stem Cell Technologies) and culturing monocytes with human mCSF for five days in macrophage media (RPMI+10% Hyclone FBS+Glutamax+Pen/Strep+non-essential amino acids+sodium pyruvate). On the fifth day, the human macrophages were scraped from the flasks and were re-plated at 100,000 cells/well on a 96-well poly-D-lysine-coated plate in the macrophage media (without mCSF). The cells were incubated for 24 hours to adhere, then the media was removed.
Antibodies diluted in RPMI alone were immediately added to the cells, and allowed to incubate for 30 minutes at 37° C. The antibodies were then removed. Lipid vesicles comprised of 70% DOPC and 30% POPS (made according to the procedure for making vesicles described above) in HBSS were added to the cells and incubated […] at 37° C. The liposome/antibody solution was removed, and 35 μL lysis buffer (Cell Signaling Technologies, CST) was added using the liquid handler. The lysate was then incubated at 4° C. for 30 minutes, then either frozen at −80° C. or immediately carried forward to a pSyk AlphaLISA assay as described above.

TREM2 [3] = target: T2, TREM2; test: TREM2 PAM/pSyk assay on human macrophages; assay type: cell-based
Description: as §1
Antibodies pre-mixed with lipid vesicles comprised of 70% DOPC and 30% POPS (made according to the procedure for making vesicles described above) diluted in HBSS were immediately added to the cells, and allowed to incubate for 5 minutes at 37° C. The liposome/antibody solution was removed, and 35 μL lysis buffer (Cell Signaling Technologies, CST) was added using the liquid handler. The lysate was then incubated at 4° C. for 30 minutes, then either frozen at −80° C. or immediately carried forward to a pSyk AlphaLISA assay as described above. […] The results of the assay are shown in FIG. 9B and in Table 8 below.

STREM2 (soluble TREM2 (sTREM2))	Bin by FACS (TREM2 [1])	Bin by Octet (hTREM2)	liposome mediated pSyk signaling after antibody pre-incubation (TREM2 [2])	Molecule	also measured
−−	1	1		42E8.H1: anti-TREM2 antibody clone; VH SEQ ID NO:20, VL SEQ ID NO:31 (antibody, V domains shown) VH: DVQLQESGPGLVKPSQSLSLTCTVTGYSITSDYAWNWIRQFPGNKLEWMGYINYSGRTIYNPSLKSRISITRDTSKNHFFLQLISVTTEDTATYYCARWNGNYGFAYWGQGTLVTVSA VL: DVVMTQNPLSLPVSLGDQASISCRSSQSLVHINGNTYLHWYLQKPGQSPKLLIYKVSNRFSGVPDRFSGSGSGTDFTLKISRVEAEDLGVYFCSQTTHALFTFGSGTKLEIK	TREM2 shedding (in words) (soluble TREM2 (sTREM2); FIG. 4, 18 hours): blocks TREM2 shedding
			enhanced	26E2.A3: anti-TREM2 antibody clone; VH SEQ ID NO:17, VL SEQ ID NO:28 (antibody, V domains shown) VH: QVHLQQSGSELRSPGSSVKLSCKDFDSEVFPISYMSWIRQKPGHGFEWIGDILPSIGGRIYGVKFEDRATLDADTVSNTAYLELNSLTSEDSAIYYCARKDYGSLAYWGQGTLVTVSA VL: DVVMTQTPLSLPVSLGDQASISCRSSQSLVHINGNTYLQWFLQKPGQSPKLLIYKVSNRFSGVPDRFSGSGSGTAFTLKISRVEAEDLGVYFCSQSTHVPYTFGGGTKLEIK	
	1	1		49H11.B1: anti-TREM2 antibody clone; VH SEQ ID NO:21, VL SEQ ID NO:32 (antibody, V domains shown) VH: DVQLQESGPGLVKPSQSLSLTCTVTGYSITSDYAWNWIRQFPGNRLEWMGYISFSGSTSYNPSLKSRISITRDTSKNQFFLQLNSVTTEDTATYYCARWNGNYGFAYWGQGTLVTVSA VL: DVVMTQTPLSLPVSLGDQASISCRSSQSLVHINGNTYLHWYLQKPGQSPKLLIYKVSNRFSGVPDRFSGSGSGTDFTLKISRVEAEDLGVYFCSQSTHVTFTFGSGTKLEIK	
				7B10.A2: anti-TREM2 antibody clone; VH SEQ ID NO:306, VL SEQ ID NO:310 (antibody, V domains shown) VH: EVQLQQSGPELVKPGASVKMSCKASGYTFTDYNMHWVKQSHGKSLEWIGYINPNNGGTTYNQKFKGKATLTVNKSSSTAYMELRSLTSEDSAVYYCATYNNHYFDSWGQGTTLTVSS VL: DIQMTQTTSSLSASLGDRVTISCSASQGISNYLNWYQQKPDGTVKLLIYYTSNLHSGVPSRFSGSGSGTDYSLTISNLEPEDIATYYCQQYSNLPYTFGGGTKLEIK	effect on lipid ligand activation of TREM2 (in words) (TREM2 [3]; FIG. 9B, human macrophages): synergistic with lipid TREM2 activators; Slope + Liposome (TREM2 [3]; pSyk, 10 nM antibody with 0, EC20, EC50, EC80 PS/PC liposomes, liposome-alone signal subtracted): 5,370
NC	3	1-2	blocked	26D2.D1: anti-TREM2 antibody clone; VH SEQ ID NO:16, VL SEQ ID NO:27 (antibody, V domains shown) VH: EVQLQQSGPELVKPGASVKMSCKASGYTFTSYVMHWVKQKPGQGLEWIGYINPYTDGTKYNEKFKGKATLTSDKSSSTAYMDLSSLTSEDSAVYYCARGEVRRYALDYWGQGTSVTVSS VL: DIQMTQSSSSFSVSLGDRVTITCKASEDIYNRLAWYQQKPGNAPRLLISGATSLETGVPSRFSGSGSGKDYTLSITSLQTEDVATYYCQQYWSTPWTFGGGTKLEIK	
NC				RS9.F10: anti-TREM2 antibody clone; likely VH SEQ ID NO:6, VL SEQ ID NO:7 (antibody, V domains shown) VH: QVQLQQPGAELVKPGASVKLSCKASGYTFTSYWMHWVKQSPGRGLEWIGRSDPTTGGTNYNEKFKTKATLTVDKPSSTAYMQLSSLTSDDSAVYYCVRTSGTGDYWGQGTSLTVSSAKTTAPSVYPLAPVCGGTTGSSVT VL: DVVMTQTPLSLPVSLGDQASISCRSSQSLVHNNGNTFLHWYLQKPGQSPKLLIYKVSNRFSGVPDRFSGSGSGTDFTLKISRVEAEDLGVYFCSQTTHVPPTFGGGTKLEIKRADAAPTVSIFPPSSEQLTSGGASVVCF	
